Experiments:
[1] = target: T1, Core_NNIN-es_KEEE; assay: two-hybrid library CCmax;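 note: natural log of median RNA to DNA barcode read ratio; higher means stronger binding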
T1 chain: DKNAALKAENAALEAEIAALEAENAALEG

[2] = target: T2, P2p; assay: two-hybrid library CCmax; settings: mean of both orientations;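 note: natural log of median RNA to DNA barcode read ratio; higher means stronger binding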
T2 chain: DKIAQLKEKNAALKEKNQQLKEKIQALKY

[3] = target: T3, Core_IINI-es_KKKE; assay: two-hybrid library CCmax; settings: mean of both orientations;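 note: natural log of median RNA to DNA barcode read ratio; higher means stronger binding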
T3 chain: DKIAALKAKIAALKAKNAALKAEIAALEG

[4] = target: T4, P4S-Cys; assay: two-hybrid library CCNG1; settings: mean of both orientations;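 note: natural log of median RNA to DNA barcode read ratio; higher means stronger binding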
T4 chain: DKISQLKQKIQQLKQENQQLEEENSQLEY

[5] = target: T5, Core_NINN-es_KEKK; assay: two-hybrid library CCmax; settings: mean of both orientations;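 note: natural log of median RNA to DNA barcode read ratio; higher means stronger binding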
T5 chain: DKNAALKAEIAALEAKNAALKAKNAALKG

[6] = target: T6, 4H1046-bH; assay: two-hybrid library CCNG1; settings: mean of both orientations;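 note: natural log of median RNA to DNA barcode read ratio; higher means stronger binding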
T6 chain: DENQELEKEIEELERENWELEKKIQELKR

[7] = target: T7, 4H1072-bH; assay: two-hybrid library CCNG1
T7 chain: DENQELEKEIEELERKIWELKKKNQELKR

[8] = target: T8, 4H2568-bH; assay: two-hybrid library CCNG1
T8 chain: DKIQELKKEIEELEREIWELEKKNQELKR

[9] = target: T9, 4H2619-bH; assay: two-hybrid library CCNG1
T9 chain: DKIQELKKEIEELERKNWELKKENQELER

[10] = target: T10, 4H2745-bH; assay: two-hybrid library CCNG1
T10 chain: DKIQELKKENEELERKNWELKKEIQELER

[11] = target: T11, 4H344-bH; assay: two-hybrid library CCNG1
T11 chain: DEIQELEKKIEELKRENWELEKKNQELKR

[12] = target: T12, 4H363-bH; assay: two-hybrid library CCNG1
T12 chain: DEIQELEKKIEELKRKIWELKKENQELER

[13] = target: T13, 4H3907-bH; assay: two-hybrid library CCNG1
T13 chain: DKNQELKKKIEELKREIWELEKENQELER

[14] = target: T14, 4H3961-bH; assay: two-hybrid library CCNG1; settings: mean of both orientations
T14 chain: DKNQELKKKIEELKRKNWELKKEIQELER

[15] = target: T15, 4H470-bH; assay: two-hybrid library CCNG1
T15 chain: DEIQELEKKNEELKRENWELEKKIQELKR

[16] = target: T16, 4H121-bN; assay: two-hybrid library CCNG1
T16 chain: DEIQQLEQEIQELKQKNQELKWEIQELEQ

[17] = target: T17, 4H182-bN; assay: two-hybrid library CCNG1
T17 chain: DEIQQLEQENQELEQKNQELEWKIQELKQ

[18] = target: T18, 4H2134-bN; assay: two-hybrid library CCNG1
T18 chain: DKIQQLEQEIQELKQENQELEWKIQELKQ

[19] = target: T19, 4H2143-bN; assay: two-hybrid library CCNG1
T19 chain: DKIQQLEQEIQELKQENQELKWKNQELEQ

[20] = target: T20, 4H2223-bN; assay: two-hybrid library CCNG1
T20 chain: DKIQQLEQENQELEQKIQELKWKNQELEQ

[21] = target: T21, 4H2438-bN; assay: two-hybrid library CCNG1
T21 chain: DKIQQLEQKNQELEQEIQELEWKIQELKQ

[22] = target: T22, 4H2473-bN; assay: two-hybrid library CCNG1
T22 chain: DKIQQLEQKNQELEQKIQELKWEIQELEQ

[23] = target: T23, 4H2503-bN; assay: two-hybrid library CCNG1
T23 chain: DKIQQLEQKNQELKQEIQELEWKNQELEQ

[24] = target: T24, 4H2588-bN; assay: two-hybrid library CCNG1
T24 chain: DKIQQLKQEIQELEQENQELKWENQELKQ

[25] = target: T25, 4H2692-bN; assay: two-hybrid library CCNG1
T25 chain: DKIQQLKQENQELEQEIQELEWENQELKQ

[26] = target: T26, 4H2717-bN; assay: two-hybrid library CCNG1
T26 chain: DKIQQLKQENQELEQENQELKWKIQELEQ

[27] = target: T27, 4H2839-bN; assay: two-hybrid library CCNG1
T27 chain: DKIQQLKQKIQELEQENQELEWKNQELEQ

[28] = target: T28, 4H2915-bN; assay: two-hybrid library CCNG1
T28 chain: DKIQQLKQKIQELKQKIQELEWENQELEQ

[29] = target: T29, 4H3057-bN; assay: two-hybrid library CCNG1
T29 chain: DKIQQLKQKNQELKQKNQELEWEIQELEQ

[30] = target: T30, 4H319-bN; assay: two-hybrid library CCNG1
T30 chain: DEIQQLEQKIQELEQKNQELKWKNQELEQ

[31] = target: T31, 4H3277-bN; assay: two-hybrid library CCNG1
T31 chain: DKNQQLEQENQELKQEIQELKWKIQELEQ

[32] = target: T32, 4H348-bN; assay: two-hybrid library CCNG1
T32 chain: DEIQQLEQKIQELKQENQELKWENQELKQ

[33] = target: T33, 4H3974-bA; assay: two-hybrid library CCNG1
T33 chain: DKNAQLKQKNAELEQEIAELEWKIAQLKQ

[34] = target: T34, 4H40-bN; assay: two-hybrid library CCNG1
T34 chain: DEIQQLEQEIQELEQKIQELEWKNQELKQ

[35] = target: T35, 4H477-bN; assay: two-hybrid library CCNG1
T35 chain: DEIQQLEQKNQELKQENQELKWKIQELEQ

[36] = target: T36, 4H492-bN; assay: two-hybrid library CCNG1
T36 chain: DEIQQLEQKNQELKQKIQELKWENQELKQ

[37] = target: T37, 4H741-bN; assay: two-hybrid library CCNG1
T37 chain: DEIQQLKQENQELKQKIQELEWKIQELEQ

[38] = target: T38, P3SH; assay: two-hybrid library CCNG1
T38 chain: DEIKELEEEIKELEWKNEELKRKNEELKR

[39] = target: T39, P4SH; assay: two-hybrid library CCNG1
T39 chain: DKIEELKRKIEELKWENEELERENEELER

[40] = target: T40, P5SH; assay: two-hybrid library CCNG1
T40 chain: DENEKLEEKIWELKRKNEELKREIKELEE

[41] = target: T41, P6SH; assay: two-hybrid library CCNG1
T41 chain: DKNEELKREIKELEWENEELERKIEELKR

[42] = target: T42, P7SH; assay: two-hybrid library CCNG1
T42 chain: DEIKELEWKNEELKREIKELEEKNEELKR

[43] = target: T43, P8SH; assay: two-hybrid library CCNG1
T43 chain: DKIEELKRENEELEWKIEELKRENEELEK

[44] = target: T44, P2-AA-1HAA-D; assay: two-hybrid library CCmax; settings: mean of both orientations
T44 chain: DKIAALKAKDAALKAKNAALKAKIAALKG

[45] = target: T45, P2-AA-1HAA-I; assay: two-hybrid library CCmax; settings: mean of both orientations
T45 chain: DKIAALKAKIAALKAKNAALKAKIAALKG

[46] = target: T46, P2-AA-1HAA-K; assay: two-hybrid library CCmax; settings: mean of both orientations
T46 chain: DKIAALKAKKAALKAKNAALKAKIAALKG

[47] = target: T47, P2-AA-1HAA-L; assay: two-hybrid library CCmax; settings: mean of both orientations
T47 chain: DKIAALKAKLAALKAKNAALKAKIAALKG

[48] = target: T48, P2-AA-1HAA-R; assay: two-hybrid library CCmax; settings: mean of both orientations
T48 chain: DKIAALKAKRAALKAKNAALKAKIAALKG

[49] = target: T49, P2-AA-1HAA-S; assay: two-hybrid library CCmax; settings: mean of both orientations
T49 chain: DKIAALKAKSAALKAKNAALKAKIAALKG

[50] = target: T50, P2-AA-1HAA-T; assay: two-hybrid library CCmax; settings: mean of both orientations
T50 chain: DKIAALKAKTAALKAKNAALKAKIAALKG

[51] = target: T51, P2-AA; assay: two-hybrid library CCmax; settings: mean of both orientations
T51 chain: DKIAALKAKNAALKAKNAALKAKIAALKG

[52] = target: T52, Core_NNNI-es_KKKE; assay: two-hybrid library CCmax; settings: mean of both orientations
T52 chain: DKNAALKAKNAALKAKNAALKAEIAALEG

B1: Core_NNIN-es_EKKK (peptide)
chain: DENAALEAKNAALKAKIAALKAKNAALKG
In the case of B1, the interaction score [1] is reported as 1.83.

B2: P1p (peptide)
chain: DEIQALEEENAQLEQENAALEEEIAQLEY
B2 was tested, and the interaction score [2] was 1.64.

B3: Core_IINI-es_EEEK (peptide)
chain: DEIAALEAEIAALEAENAALEAKIAALKG
B3 was tested, and the interaction score [3] was 2.3.

B4: Cys-P3S (peptide)
chain: DEIQQLEEEISQLEQKNSQLKEKNQQLKY
Work on B4 yielded an interaction score [4] of 1.92.

B5: Core_NINN-es_EKEE (peptide)
chain: DENAALEAKIAALKAENAALEAENAALEG
For B5, the interaction score [5] was 1.5.

B6: 4H1046-bH (peptide)
chain: DENQELEKEIEELERENWELEKKIQELKR
B6 showed an interaction score [6] of 0.287, an interaction score [7] of -0.477 and an interaction score [8] of 1.03. For the same binder, the interaction score [9] was 0.439, the interaction score [10] was 0.917 and the interaction score [11] was 1.33. It also gave an interaction score [12] of -1.16, an interaction score [13] of -0.121 and an interaction score [14] of -0.386. For the same binder, the interaction score [15] was 0.405.

B7: 4H121-bN (peptide)
chain: DEIQQLEQEIQELKQKNQELKWEIQELEQ
Work on B7 yielded an interaction score [16] of -0.707, an interaction score [17] of -0.748 and an interaction score [18] of 1.52. It also gave an interaction score [19] of -0.718, an interaction score [20] of -0.986 and an interaction score [21] of 1.48. It also gave an interaction score [22] of -0.436, an interaction score [23] of -1.29 and an interaction score [24] of -0.5. The interaction score [25] was -1.02, the interaction score [26] was -0.302 and the interaction score [27] was -0.184. For the same binder, the interaction score [28] was -0.211, the interaction score [29] was -1.3 and the interaction score [30] was -1.04. The interaction score [31] was -1.33, the interaction score [32] was -0.398 and the interaction score [33] was 1.19. For the same binder, the interaction score [34] was -0.563, the interaction score [35] was -1.35 and the interaction score [36] was -1.42. It also gave an interaction score [37] of -1.39.

B8: P3SH (peptide)
chain: DEIKELEEEIKELEWKNEELKRKNEELKR
Work on B8 yielded an interaction score [38] of 0.764, an interaction score [39] of 1.95 and an interaction score [40] of 0.554. The interaction score [41] was 0.737, the interaction score [42] was -0.109 and the interaction score [43] was 0.525.

B9: P1-AA-1HAA-D (peptide)
chain: DEIAALEAEDAALEAENAALEAEIAALEG
With B9 the interaction score [44] was 0.443, the interaction score [45] was 1.89 and the interaction score [46] was 1.56. For the same binder, the interaction score [47] was 2.16, the interaction score [48] was 1.66 and the interaction score [49] was 1.57. The interaction score [50] was 1.59 and the interaction score [51] was 2.18.

B10: Core_NNNI-es_EEEK (peptide)
chain: DENAALEAENAALEAENAALEAKIAALKG
Binder B10 has an interaction score [52] of 2.16.

Source: paper PMC10397247
